Measured values reported in US20220332804A1 (CSL INNOVATION, published 2022).

Columns and labels:
Assay in all cases: SPR, KD relative to WT C2;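 note: biacore SPR at 37 °C, anti-C2 mAbs captured on anti-human IgG chips with alanine or serine point mutants of C2 as analyte, KD from 1:1 fit compared with wild-type C2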
human C2 L271A = target: T1, human C2 L271A (human, UniProt P06681 21-752)
T1 sequence: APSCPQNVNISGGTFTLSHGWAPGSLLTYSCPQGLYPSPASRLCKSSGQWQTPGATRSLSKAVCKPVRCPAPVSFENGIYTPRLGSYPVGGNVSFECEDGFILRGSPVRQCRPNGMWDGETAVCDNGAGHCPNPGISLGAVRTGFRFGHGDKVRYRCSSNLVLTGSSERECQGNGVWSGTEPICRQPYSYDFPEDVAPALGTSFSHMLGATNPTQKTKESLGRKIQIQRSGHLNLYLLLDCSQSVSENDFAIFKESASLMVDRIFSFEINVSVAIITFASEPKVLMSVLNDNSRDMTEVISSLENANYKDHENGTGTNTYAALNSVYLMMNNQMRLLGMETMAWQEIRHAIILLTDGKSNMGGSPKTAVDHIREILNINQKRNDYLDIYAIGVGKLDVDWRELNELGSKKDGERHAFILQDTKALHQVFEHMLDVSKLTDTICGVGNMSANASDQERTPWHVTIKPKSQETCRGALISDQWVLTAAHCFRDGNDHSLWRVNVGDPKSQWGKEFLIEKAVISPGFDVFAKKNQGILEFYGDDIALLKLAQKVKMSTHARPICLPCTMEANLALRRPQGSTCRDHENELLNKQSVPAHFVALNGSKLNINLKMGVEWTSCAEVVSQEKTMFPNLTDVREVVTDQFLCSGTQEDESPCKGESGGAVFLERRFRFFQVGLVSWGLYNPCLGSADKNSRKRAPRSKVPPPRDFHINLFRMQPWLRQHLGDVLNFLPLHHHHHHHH

human C2 V455A = target: T2, human C2 V455A (human, UniProt P06681 21-752)
T2 sequence: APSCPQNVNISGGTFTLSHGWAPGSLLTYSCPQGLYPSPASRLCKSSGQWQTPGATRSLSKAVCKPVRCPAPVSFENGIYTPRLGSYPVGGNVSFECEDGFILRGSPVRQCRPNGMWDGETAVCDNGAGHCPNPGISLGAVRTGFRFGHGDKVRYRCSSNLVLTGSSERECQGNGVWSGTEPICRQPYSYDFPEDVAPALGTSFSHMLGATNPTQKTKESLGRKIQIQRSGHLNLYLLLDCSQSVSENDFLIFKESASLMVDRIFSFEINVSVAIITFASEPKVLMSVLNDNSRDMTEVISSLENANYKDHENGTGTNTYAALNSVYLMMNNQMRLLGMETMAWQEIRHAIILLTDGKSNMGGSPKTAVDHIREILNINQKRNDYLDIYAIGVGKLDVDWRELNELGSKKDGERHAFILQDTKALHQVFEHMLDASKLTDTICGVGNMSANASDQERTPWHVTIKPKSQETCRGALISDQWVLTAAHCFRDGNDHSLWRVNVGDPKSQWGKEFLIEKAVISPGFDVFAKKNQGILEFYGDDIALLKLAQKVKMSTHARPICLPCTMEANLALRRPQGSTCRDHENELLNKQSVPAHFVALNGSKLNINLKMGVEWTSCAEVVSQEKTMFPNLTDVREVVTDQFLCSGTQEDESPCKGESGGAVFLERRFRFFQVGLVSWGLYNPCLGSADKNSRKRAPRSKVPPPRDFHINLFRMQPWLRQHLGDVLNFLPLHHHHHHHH

human C2 E476A = target: T3, human C2 E476A (human, UniProt P06681 21-752)
T3 sequence: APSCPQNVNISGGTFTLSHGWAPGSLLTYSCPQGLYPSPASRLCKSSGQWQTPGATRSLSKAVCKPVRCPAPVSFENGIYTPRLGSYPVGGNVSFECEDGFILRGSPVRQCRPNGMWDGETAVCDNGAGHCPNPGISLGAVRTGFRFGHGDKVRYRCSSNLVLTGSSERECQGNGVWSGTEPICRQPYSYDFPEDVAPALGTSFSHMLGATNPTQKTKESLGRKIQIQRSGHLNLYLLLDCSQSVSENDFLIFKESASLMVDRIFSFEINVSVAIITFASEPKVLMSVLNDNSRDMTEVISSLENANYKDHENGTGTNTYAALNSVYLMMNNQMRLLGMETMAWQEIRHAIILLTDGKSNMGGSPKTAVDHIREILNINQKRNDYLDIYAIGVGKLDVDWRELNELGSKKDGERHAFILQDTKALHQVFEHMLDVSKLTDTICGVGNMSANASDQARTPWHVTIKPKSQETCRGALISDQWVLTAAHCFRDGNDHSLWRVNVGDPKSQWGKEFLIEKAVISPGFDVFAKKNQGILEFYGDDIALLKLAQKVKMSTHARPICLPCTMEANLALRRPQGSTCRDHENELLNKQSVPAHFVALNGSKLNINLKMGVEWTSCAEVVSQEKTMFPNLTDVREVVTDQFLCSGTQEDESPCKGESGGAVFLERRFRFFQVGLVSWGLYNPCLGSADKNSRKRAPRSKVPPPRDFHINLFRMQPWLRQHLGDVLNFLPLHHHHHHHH

human C2 E433A = target: T4, human C2 E433A (human, UniProt P06681 21-752)
T4 sequence: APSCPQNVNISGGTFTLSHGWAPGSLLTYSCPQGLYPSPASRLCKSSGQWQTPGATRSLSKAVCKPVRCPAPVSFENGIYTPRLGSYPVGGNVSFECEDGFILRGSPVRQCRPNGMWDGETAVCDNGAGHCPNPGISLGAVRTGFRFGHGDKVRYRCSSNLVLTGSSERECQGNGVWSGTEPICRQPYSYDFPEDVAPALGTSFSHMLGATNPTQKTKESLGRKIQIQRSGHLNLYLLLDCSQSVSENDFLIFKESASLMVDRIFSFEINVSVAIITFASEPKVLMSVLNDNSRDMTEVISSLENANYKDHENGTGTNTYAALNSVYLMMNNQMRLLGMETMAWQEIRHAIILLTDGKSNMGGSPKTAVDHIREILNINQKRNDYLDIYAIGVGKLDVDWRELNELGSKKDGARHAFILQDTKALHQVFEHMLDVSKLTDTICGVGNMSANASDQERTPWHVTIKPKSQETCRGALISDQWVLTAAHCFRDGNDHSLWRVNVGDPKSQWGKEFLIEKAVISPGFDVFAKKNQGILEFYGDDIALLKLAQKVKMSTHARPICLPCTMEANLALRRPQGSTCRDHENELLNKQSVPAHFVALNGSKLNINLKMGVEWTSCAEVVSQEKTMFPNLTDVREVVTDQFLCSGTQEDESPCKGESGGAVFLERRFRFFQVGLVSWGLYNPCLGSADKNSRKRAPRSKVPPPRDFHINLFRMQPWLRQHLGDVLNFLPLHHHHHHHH

B1: RF16-242 (antibody, human IgG4 S228P, lambda, V domains shown)
VH: EVQLLQSGAEVKKPGESLKISCKGSGYSFTSYWIGWVRQMPGKGLEWMGIIYPGDSDTRYSPSFQGQVTISADKSISTAYLQWSSLKASDTAMYYCARRGHYGDYFDYWGQGTLVTVSS
VL: SYELTQPPSVSVSPGQTARITCSGDALPKKYAYWYHQKSGQAPVLVIYEDRRRPSEIPERFSGSSSGTMATLTITGAQVEDEGVYFCYSRDRAGNQRVFGGGTQLTVLG
notes: pH-dependent anti-C2 antibody from a phage display library
Fold diff (human C2 L271A): 1 fold | Fold diff (human C2 V455A): 1 fold | Fold diff (human C2 E476A): 2 fold | Fold diff (human C2 E433A): 0 fold
